# Assay results: paper PMC10902388 (2024)
# B1: full-length human E6AP (C-terminal TEV-6xHis-Avi) (enzyme)
# chain: MEKLHQCYWKSGEPQSDDIEASRMKRAAAKHLIERYYHQLTEGCGNEACTNEFCASCPTFLRMDNNAAAIKALELYKINAKLCDPHPSKKGASSAYLENSKGAPNNSCSEIKMNKKGARIDFKDVTYLTEEKVYEILELCREREDYSPLIRVIGRVFSSAEALVQSFRKVKQHTKEELKSLQAKDEDKDEDEKEKAACSAAAMEEDSEASSSRIGDSSQGDNNLQKLGPDDVSVDIDAIRRVYTRLLSNEKIETAFLNALVYLSPNVECDLTYHNVYSRDPNYLNLFIIVMENRNLHSPEYLEMALPLFCKAMSKLPLAAQGKLIRLWSKYNADQIRRMMETFQQLITYKVISNEFNSRNLVNDDDAIVAASKCLKMVYYANVVGGEVDTNHNEEDDEEPIPESSELTLQELLGEERRNKKGPRVDPLETELGVKTLDCRKPLIPFEEFINEPLNEVLEMDKDYTFFKVETENKFSFMTCPFILNAVTKNLGLYYDNRIRMYSERRITVLYSLVQGQQLNPYLRLKVRRDHIIDDALVRLEMIAMENPADLKKQLYVEFEGEQGVDEGGVSKEFFQLVVEEIFNPDIGMFTYDESTKLFWFNPSSFETEGQFTLIGIVLGLAIYNNCILDVHFPMVVYRKLMGKKGTFRDLGDSHPVLYQSLKDLLEYEGNVEDDMMITFQISQTDLFGNPMMYDLKENGDKIPITNENRKEFVNLYSDYILNKSVEKQFKAFRRGFHMVTNESPLKYLFRPEEIELLICGSRNLDFQALEETTEYDGGYTRDSVLIREFWEIVHSFTDEQKRLFLQFTTGTDRAPVGGLGKLKMIIAKNGPDTERLPTSHTCFNVLLLPEYSSKEKLKERLLKAITYAKGFGML
# modifications: biotin on the Avi tag (BirA biotin-protein ligase) in the SPR experiments
# Target: MBP-16E6(4C4S) (MBP-GGGGS-TEV-16E6, construct used in SPR) (HPV16, UniProt P03126 1-158, C87S | C104S | C118S | C147S)
# Experiment: SPR
binder,measurement,value
B1,koff,0.0004 s⁻¹
